The text below walks through data of patent US20240307507A1, “LACTOFERRIN COMPOSITIONS AND METHODS OF USE” (LACTEA THERAPEUTICS LLC, priority 2021, published 2024).

The nature of data set [1]: ELISA antibody binding of Lactoferrin. To be noted: same amount of protein by weight loaded. As for the experimental part:
Lactoferrin percentage can be assessed by an enzyme-linked immunosorbent assay (ELISA). In some instances, an ELISA can distinguish the percentage of Lactoferrin in a native protein conformation, such as by using an antibody that specifically binds the native protein conformation of Lactoferrin.
Lactoferrin purity was also assessed by ELISA.
Background: In an ELISA, binding on a coated surface is turned into a signal by an enzyme label.

In another data set the test system is E. coli. Briefly: Zone of inhibition test. The format is cell-based. As for the experimental part:
A zone of inhibition test was performed to assess bioactivity of API-E2 Lactoferrin. A plate with E. coli was cultured with 100 μg/mL, 10 μg/mL, 1 μg/mL, and 0.1 μg/mL API-E2 Lactoferrin added to paper circles and allowed to diffuse out.

A further data set relates to SARS-COV-2. Briefly: SARS-COV-2 Cytopathic Effect (CPE) reduction assay in Vero E6 cells. The format is cell-based. To be noted: Vero E6 cells, neutral red, three days post-infection. (Protection from cytopathic effect is a common read-out in antiviral testing.)
The test system of data set [2] is ECM of primary buccal cells. Briefly: Lactoferrin ECM association by immunofluorescence, primary buccal cells. The format is cell-based. To be noted: 100 ug/mL, 1 hr, 37 C. As for the experimental part: Primary buccal cells were next cultured according to a standard protocol (e.g., see Russo et al. Cytotechnology. 2016 October; 68(5): 2105-2114; herein incorporated by reference for all purposes). […] Immunofluorescence imaging was performed as previously described.

Data set [3] in a line: DSC iron binding capability with excess iron chloride. To be noted: iron chloride in 1000× molar excess. As for the experimental part:
The DSC assay was further used to assess Lactoferrin bioactivity, specifically the iron binding capability of the API-E2 Lactoferrin. Iron chloride (FeC13) was added in 1000× molar excess to API-E2 Lactoferrin. In the presence of excess iron, the API-E2 lactoferrin will bind the iron to its open iron binding site.

In the next data set the test system is lactoperoxidase (LPO). Briefly: Enzymatic colour assay for lactoperoxidase (LPO) activity. The format is biochemical. To be noted: colorimetric peroxidase substrate turning blue. An excerpt: An enzymatic assay for lactoperoxidase (LPO) activity was developed utilizing a molecule which in the presence of peroxidase activity turns a blue color.
Data set [4] can be described thus: Differential Scanning Calorimetry (DSC) unfolding of apolactoferrin and hololactoferrin forms. The format is physicochemical. As for the experimental part: The assay was also performed with heat-treated API-E2 Lactoferrin. API-E2 Lactoferrin was heated across a range of 50-100° C.
(In general: Differential scanning calorimetry records heat flow against a reference as temperature is scanned.)

For data set [5], the system named is Salivary bacteria (including Lactobacillus, Lactococcus, and Streptococcus mutans). Briefly: Salivary bacteria acid production by pH testing. To be noted: with sucrose, start pH 7, entire 6 hour period. It is filed as cell-based. As for the experimental part:
Salivary bacteria (including Lactobacillus, Lactococcus, and Streptococcus mutans) produce acid during growth. This acidification is strongly associated with tooth decay, particularly when it results in pH below 5.5, which is a clinically relevant threshold. A slurry of these bacteria were treated with sucrose to stimulate growth, as well as varying concentrations of API-E2 lactoferrin. Upon the addition of sucrose and API-E2 lactoferrin, the pH was adjusted to 7 through a titration and the change in pH was subsequently monitored over the next 6 hours.

B1: API-E2: purified bovine lactoferrin from raw, untreated milk produced according to Example 1 (protein)
chain: APRKNVRWCTISQPEWFKCRRWQWRMKKLGAPSITCVRRAFALECIRAIAEKKADAVTLDGGMVFEAGRDPYKLRPVAAEIYGTKESPQTHYYAVAVVKKGSNFQLDQLQGRKSCHTGLGRSAGWIIPMGILRPYLSWTESLEPLQGAVAKFFSASCVPCIDRQAYPNLCQLCKGEGENQCACSSREPYFGYSGAFKCLQDGAGDVAFVKETTVFENLPEKADRDQYELLCLNNSRAPVDAFKECHLAQVPSHAVVARSVDGKEDLIWKLLSKAQEKFGKNKSRSFQLFGSPPGQRDLLFKDSALGFLRIPSKVDSALYLGSRYLTTLKNLRETAEEVKARYTRVVWCAVGPEEQKKCQQWSQQSGQNVTCATASTTDDCIVLVLKGEADALNLDGGYIYTAGKCGLVPVLAENRKSSKHSSLDCVLRPTEGYLAVAVVKKANEGLTWNSLKDKKSCHTAVDRTAGWNIPMGLIVNQTGSCAFDEFFSQSCAPGADPKSRLCALCAGDDQGLDKCVPNSKEKYYGYTGAFRCLAEDVGDVAFVKNDTVWENTNGESTADWAKNLNREDFRLLCLDGTRKPVTEAQSCHLAVAPNHAVVSRSDRAAHVKQVLLHQQALFGKNGKNCPDKFCLFKSETKNLLFNDNTECLAKLGGRPTYEEYLGTEYVTAIANLKKCSTSPLLEACAFLTR
The EC50 is the concentration giving half of the maximal effect. Lower therefore signals higher potency in that assay. Turning to B1, in data set [1], the “increase in antibody binding relative to existing research standards” value worked out at 30%. Besides, the zone of inhibition entry in the data set on E. coli (0.1 μg/mL on paper circles) is listed as “No zone of inhibition”; in the data set with E. coli (1 μg/mL on paper circles), “limited zone of inhibition”; in the data set with E. coli (10 ug/mL on paper circles), “complete inhibition”; in the data set with E. coli (100 μg/mL on paper circles), “complete inhibition”. Further, a half-maximal effect with SARS-COV-2 (EC50) was put at 90 nM. Besides, the “ECM association of Lactoferrin” value in data set [2] is “strong binding along the ECM”. Besides, the “available Apolactoferrin shifted to the Hololactoferrin form” value in data set [3] stood at 100%. Besides, the “LPO enzymatic activity in the sample” value in the data set with lactoperoxidase (LPO) is recorded as “neither detected”. The “Delta H, apolactoferrin peak” value in data set [4] (10 mg/mL) was found to be 111.4 ± 2.2 kcal/mol. The “Delta H, hololactoferrin peak” value in data set [4] (10 mg/mL) was 151.2 ± 1.72 kcal/mol. In addition, in data set [4] (native sample without added iron), the “% of Total, apolactoferrin” value was 91.26 +/− 1.39% ^. The “pH maintained over testing period” value in data set [5] (1 mg/mL) and in data set [5] (10 mg/mL) was “above 5.5” in each case.

B2: heat-treated API-E2 Lactoferrin: API-E2 Lactoferrin heated across a range of 50-100° C. (protein, UniProt P24627 20-708, looked up)
Lactotransferrin: APRKNVRWCTISQPEWFKCRRWQWRMKKLGAPSITCVRRAFALECIRAIAEKKADAVTLDGGMVFEAGRDPYKLRPVAAEIYGTKESPQTHYYAVAVVKKGSNFQLDQLQGRKSCHTGLGRSAGWIIPMGILRPYLSWTESLEPLQGAVAKFFSASCVPCIDRQAYPNLCQLCKGEGENQCACSSREPYFGYSGAFKCLQDGAGDVAFVKETTVFENLPEKADRDQYELLCLNNSRAPVDAFKECHLAQVPSHAVVARSVDGKEDLIWKLLSKAQEKFGKNKSRSFQLFGSPPGQRDLLFKDSALGFLRIPSKVDSALYLGSRYLTTLKNLRETAEEVKARYTRVVWCAVGPEEQKKCQQWSQQSGQNVTCATASTTDDCIVLVLKGEADALNLDGGYIYTAGKCGLVPVLAENRKSSKHSSLDCVLRPTEGYLAVAVVKKANEGLTWNSLKDKKSCHTAVDRTAGWNIPMGLIVNQTGSCAFDEFFSQSCAPGADPKSRLCALCAGDDQGLDKCVPNSKEKYYGYTGAFRCLAEDVGDVAFVKNDTVWENTNGESTADWAKNLNREDFRLLCLDGTRKPVTEAQSCHLAVAPNHAVVSRSDRAAHVKQVLLHQQALFGKNGKNCPDKFCLFKSETKNLLFNDNTECLAKLGGRPTYEEYLGTEYVTAIANLKKCSTSPLLEACAFLTR
modifications: heat-treated
In the case of B2, the “DSC apolactoferrin and hololactoferrin peaks detected” value in data set [4] (same conditions as API-E2) is on record as “loss in both detectable peaks”.

B3: Lactoferrin (“Reagent”): purchased laboratory reagent grade Lactoferrin [Sigma Bovine Colostrum Lactoferrin] (protein, UniProt P24627 20-708, looked up)
Lactotransferrin: APRKNVRWCTISQPEWFKCRRWQWRMKKLGAPSITCVRRAFALECIRAIAEKKADAVTLDGGMVFEAGRDPYKLRPVAAEIYGTKESPQTHYYAVAVVKKGSNFQLDQLQGRKSCHTGLGRSAGWIIPMGILRPYLSWTESLEPLQGAVAKFFSASCVPCIDRQAYPNLCQLCKGEGENQCACSSREPYFGYSGAFKCLQDGAGDVAFVKETTVFENLPEKADRDQYELLCLNNSRAPVDAFKECHLAQVPSHAVVARSVDGKEDLIWKLLSKAQEKFGKNKSRSFQLFGSPPGQRDLLFKDSALGFLRIPSKVDSALYLGSRYLTTLKNLRETAEEVKARYTRVVWCAVGPEEQKKCQQWSQQSGQNVTCATASTTDDCIVLVLKGEADALNLDGGYIYTAGKCGLVPVLAENRKSSKHSSLDCVLRPTEGYLAVAVVKKANEGLTWNSLKDKKSCHTAVDRTAGWNIPMGLIVNQTGSCAFDEFFSQSCAPGADPKSRLCALCAGDDQGLDKCVPNSKEKYYGYTGAFRCLAEDVGDVAFVKNDTVWENTNGESTADWAKNLNREDFRLLCLDGTRKPVTEAQSCHLAVAPNHAVVSRSDRAAHVKQVLLHQQALFGKNGKNCPDKFCLFKSETKNLLFNDNTECLAKLGGRPTYEEYLGTEYVTAIANLKKCSTSPLLEACAFLTR
B3 came in with a 50% effective concentration (EC50) in the data set on SARS-COV-2 of 140 nM. In data set [2], the “ECM association of Lactoferrin” value was “only limited ECM association”. The “LPO enzymatic activity in the sample” value with lactoperoxidase (LPO) was “does not result in a positive enzymatic reaction”. The “estimated ratio of the apolactoferrin to hololactoferrin peak” value in data set [4] is “nearly equal”. Besides, in data set [4] (10 mg/mL), the “Tm, apolactoferrin peak” value was determined as 55 C and the “Tm, hololactoferrin peak” value came to 85 C.
